{"source": "patent US11110182B2", "about": "“Multifunctional RNA nanoparticles and methods for treating cancer and therapeutic resistant cancer” (University of Cincinnati, priority 2016, dated 2021)", "molecules": {"B1": {"name": "pRNA-HER2apt-siMED1: 3-WJ pRNA nanoparticle bearing a HER2-targeting RNA aptamer and two different MED1 siRNAs; strands p1 SEQ ID NO: 3, p2 SEQ ID NO: 4 (nucleic acid)", "chain 1": "GGACAGUGAAAGUGAGUCAAAGGAUCAAUCAUGGCCAAAGAUGUUACUUUGAGAGCCUU", "chain 2": "GGCUCUCAAAGUAACAUCUAAGGCCAUGUGUAUGUGGGGGGAGGACGAUGCGGUCUGCUGUGCUUGAUAUGCCCCAGACGACUCGCCCCCCACAUACUUUGUUGAUCCAAUGACUCACUUUCACUGUCCUU", "modifications": "2'-F modification; third strand may lack entry; pRNA-HER2apt-siMED1, p1; pRNA-HER2apt-siMED1, p2"}}, "key": {"[1]": {"tested_on": "ERα target genes TFF-1, c-Myc, cyclin D1", "assay": "mRNA levels of ERα target genes by real-time PCR in BT474 cells", "type": "cell-based, human", "conditions": "BT474, 48 h", "method": "FIG. 3A) BT474 cells were incubated with 10 μg/mL control and pRNA-HER2apt-siMED1 nanoparticles for 48 h, and MED1 mRNA level was determined by real-time PCR. FIG. 3B) BT474 cells were incubated directly with (as indicated by -) or transfected with indicated pRNAs using lipofectamine 2000. At 48 h post treatment, MED1 protein levels were determined by western blotting. FIG. 3C) BT474 cells were treated with 10 μg/mL pRNA nanoparticles for 48 h and assayed for cell viability by MTT assay. FIG. 3D) Cells were treated as above and seeded for migration, and FIG. 3E) invasion transwell assays. Scale bar: 50 μm. FIG. 3F) After pRNA treatment for 48 h, the mRNA levels of ERα target genes TFF-1, FIG. 3G) c-Myc, and FIG. 3H) cyclin D1 in BT474 cells were determined by real-time PCR.\nCell culture. Human breast cancer luciferase-overexpressing BT474 and MDA-MB-231 cells were maintained in DMEM medium (Hyclone, Thermo Scientific) supplemented with 10% fetal bovine serum (FBS, Sigma) and 1% penicillin/streptomycin (Corning) at 37° C. in a humidified atmosphere with 5% CO2.^53 • Generation of pRNA nanoparticles. The two strands of pRNA were synthesized with the DNA templates, which were amplified with overlapping primers (Sigma) by PCR methods, using a T7 promoter-controlled in vitro RNA transcription system as previously described^33 (Table 1). All the CTP and UTP used for synthesis of the pRNA nanoparticles were 2′-fluoro modified, except the control unmodified pRNA nanoparticles used in the stability assays. […] The hydrodynamic diameter and Tm value of pRNA nanoparticles were determined using dynamic light scattering and TGGE assay, respectively, as previously described.^54 The AFM imaging of the pRNA nanoparticles was performed at the University of Nebraska Medical Center imaging facility as previously reported.^55 Briefly, the pRNA nanoparticles (5 μL) were deposited on APS modified mica ^56 for a total of 2 min of incubation time. […] After washing three times with PBS, the cellular uptake of pRNAs was determined using a BD LSRFortessa™ flow cytometer. • Real-time PCR. […]"}, "[2]": {"tested_on": "ERα target genes TFF-1, c-Myc, cyclin D1 and MMP-9", "assay": "Gene expression in xenograft tumor tissues by real-time PCR", "type": "in vivo, athymic nude mice", "description": "FIG. 6A) Whole lung tissues were fixed, embedded, and sectioned for H&E staining, and FIG. 6B) metastasis foci in the whole lung tissues were then counted. Arrow indicates the metastasis foci. Scale bar: 100 μm. FIG. 6C) After digesting tumor tissues with trypsin and 0.1% collagenase, tumor cells were stained for CD44 and CD24, and FIG. 6D) analyzed for CD44^+CD24^−/low stem cell population using flow cytometry. FIG. 6E) Total RNA in the tumor tissues was extracted using TRIZOL reagent, and the expression of TFF-1, FIG. 6F) c-Myc, FIG. 6G) cyclin D1, and FIG. 6H) MMP-9 were determined by real-time PCR.\nCell culture. Human breast cancer luciferase-overexpressing BT474 and MDA-MB-231 cells were maintained in DMEM medium (Hyclone, Thermo Scientific) supplemented with 10% fetal bovine serum (FBS, Sigma) and 1% penicillin/streptomycin (Corning) at 37° C. in a humidified atmosphere with 5% CO2.^53 • Generation of pRNA nanoparticles. The two strands of pRNA were synthesized with the DNA templates, which were amplified with overlapping primers (Sigma) by PCR methods, using a T7 promoter-controlled in vitro RNA transcription system as previously described^33 (Table 1). All the CTP and UTP used for synthesis of the pRNA nanoparticles were 2′-fluoro modified, except the control unmodified pRNA nanoparticles used in the stability assays. Following an overnight transcription at 37° C., RNA strands were purified using RNA clean and concentrator kits (ZYMO research) and examined by 8 M urea denatured 8% PAGE gel. pRNA nanoparticles were assembled by mixing the equal molar amounts of p1 and p2 strands and gradually annealing from 90° C. to 20° C. in 1×RNA annealing buffer containing 50 mM Tris-HCl (pH 7.5), 50 mM NaCl and 1 mM EDTA on a PCR machine. The generated pRNA nanoparticles were examined by 8% native PAGE gels as previously described.^33 To generate AF647-conjugated pRNA nanoparticles, a 5′-termial AF647-conjugated RNA strand was synthesized (TriLink) for annealing. • Characterization of pRNA nanoparticles. The hydrodynamic diameter and Tm value of pRNA nanoparticles were determined using dynamic light scattering and TGGE assay, respectively, as previously described.^54 The AFM imaging of the pRNA nanoparticles was performed at the University of Nebraska Medical Center imaging facility as previously reported.^55 Briefly, the pRNA nanoparticles (5 μL) were deposited on APS modified mica ^56 for a total of 2 min of incubation time. Excess samples were washed with DI water and dried under a flow of Argon gas. AFM images in air were acquired using MultiMode AFM NanoScope IV system (Bruker Instruments) operating in tapping mode with 1.5 Hz scanning rate. TESPA probes from Bruker were used for tapping mode imaging. […] For stability analyses, the pRNA nanoparticles were treated with RNase A, 8 M urea, or 10% FBS supplemented DMEM medium at 37° C., respectively. The integrity of the pRNA nanoparticles was examined through native PAGE gel electrophoresis. • pRNA nanoparticle cellular uptake assay. BT474 and MDA-MB-231 cells were seeded into 4-well Lab-Tek chamber slides (Nalge Nunc international, Thermo scientific) and incubated with 10 μg/mL AF647-conjugated pRNAs at 4° C. for 30 min. After washing with PBS for three times, cells were incubated at 37° C. for another hour. Cells were then fixed with 4% formaldehyde, permeated with 0.25% Trinton X-100, and stained with FITC-conjugated β-actin antibody (Sigma) and DAPI (Sigma). pRNA nanoparticle uptake was examined using a laser scanning confocal microscope (Zeiss). For flow cytometry analyses, BT474 cells were incubated with AF647-labeled pRNA nanoparticles at 37° C. for 3 h. After washing three times with PBS, the cellular uptake of pRNAs was determined using a BD LSRFortessa™ flow cytometer. • Real-time PCR. […]"}}, "data": [{"molecule": "B1", "values": [{"measurement": "TFF-1 mRNA expression", "setting": "[1]", "value": "significantly down-regulated"}, {"measurement": "c-Myc mRNA expression", "setting": "[1]", "value": "significantly down-regulated"}, {"measurement": "cyclin D1 mRNA expression", "setting": "[1]", "value": "significantly down-regulated"}, {"measurement": "MMP-9 expression in tumor tissues", "setting": "[2]; combined with tamoxifen", "value": "further inhibited"}, {"measurement": "TFF-1 expression in tumor tissues", "setting": "[2]; combined with tamoxifen", "value": "further inhibited"}, {"measurement": "c-Myc expression in tumor tissues", "setting": "[2]; combined with tamoxifen", "value": "further inhibited"}, {"measurement": "cyclin D1 expression in tumor tissues", "setting": "[2]; combined with tamoxifen", "value": "further inhibited"}, {"measurement": "MMP-9 expression in tumor tissues", "setting": "[2]; pRNA treatment", "value": "significantly down-regulated"}, {"measurement": "TFF-1 expression in tumor tissues", "setting": "[2]; pRNA treatment", "value": "significantly down-regulated"}, {"measurement": "c-Myc expression in tumor tissues", "setting": "[2]; pRNA treatment", "value": "significantly down-regulated"}, {"measurement": "cyclin D1 expression in tumor tissues", "setting": "[2]; pRNA treatment", "value": "significantly down-regulated"}]}]}
